The values below come from patent US20210077576A1.

Experiment [1] concerns the target rabbit integrins on SIRC cells (rabbit corneal cells). Kind of experiment: flow cytometry on SIRC (rabbit cornea) cells, detection with an antibody against the Fc domain; cell of the drawn KD table, column SIRC [KD table]. On the technique in general: In flow cytometry, cells or beads pass a laser one at a time.
The target in experiment [2] is monkey integrins on CV-1 and RF/6A cells. Kind of experiment: flow cytometry on RF/6A (monkey) cells, bound protein detected with an antibody against the Fc domain; cell of the drawn KD table, column RF/6A [KD table].
Experiment [3] has the same target. Kind of experiment: flow cytometry on CV-1 (monkey) cells, detection with an antibody against the Fc domain [panel CV-1 (monkey].
Experiment [4] shares this target. Put plainly: flow cytometry on CV-1 (monkey) cells, bound protein detected with an antibody against the Fc domain; cell of the drawn KD table, column CV-1 [KD table].
The target of experiment [5] is rat integrins on Rat2 cells (rat fibroblasts). Kind of experiment: flow cytometry on Rat2 (rat fibroblast) cells, detection with an antibody against the Fc domain; cell of the drawn KD table, column Rat2 [KD table].
Experiment [6] addresses human integrins on U87MG cells (human tumor cells). Put plainly: flow cytometry on U87MG (human) cells, bound protein detected with an antibody against the Fc domain; cell of the drawn KD table, column U87MG [KD table].

A word on the Kd: it is a measure of binding affinity in units of concentration. As a reminder, the EC50 (read off the curve) is the concentration at which the effect is half-maximal. Regarding “NOD201 (2.5F peptide fused to human IgG1 Fc; no linker) (Fc fusion)”, the dissociation constant (Kd) is 0.288 nM in experiment [1], 0.5 nM in experiment [2], 1.5 nM in experiment [4] and 1.01 nM in experiment [5]. The same molecule displayed an EC50 (read off the curve) in experiment [3] of 2 nM.

B1: NOD201M (NOD201 with murine Fc domain; no linker) (Fc fusion)
chain: GCPRPRGDNPPLTCSQDSDCLAGCVCGPNGFCGEPRVPITQNPCPPLKECPPCAAPDLLGGPSVFIFPPKIKDVLMISLSPMVTCVVVDVSEDDPDVQISWFVNNVEVHTAQTQTHREDYNSTLRVVSALPIQHQDWMSGKEFKCKVNNRALPSPIEKTISKPRGPVRAPQVYVLPPPAEEMTKKEFSLTCMITGFLPAEIAVDWTSNGRTEQNYKNTATVLDSDGSYFMYSKLRVQKSTWERGSLFACSVVHEGLHNHLTTKTISRSLG
For B1, in experiment [6], the dissociation constant (Kd) amounted to 0.7 nM.
